# According to PMC6888979 (The Journal of Experimental Medicine, 2019):
# B1: soluble recombinant ectodomain of murine FIBCD1 (mFIBCD1^Ecto) (domain or fragment)
# chain: NHTHTPGTAPPPIVSTGTAGANSALVTVERADSSHLSLLIDPRCPDLTDSFARLEGIQASILRALSEHQAQPRLDGAPELLDALADQLPRLLTRASELQAECAGLRKGHSLLGQGLSTLQSEQGRLIQLLSESQGHMAHLVNSVSDVLEALQRERGLGRPRVKADLQRAPSRGARPRGCANGSRPRDCLDVLLSGQQDDGVYSIFPTHYPAGFQVYCDMRTDGGGWTVFQRREDGSVNFFRGWEAYREGFGKLTGEHWLGLKRIHALTTQAAYELHVDLEDFDNGTAYAHYGSFGVGLFSVDPEEDGYPLTVADYSGTAGDSLLKHSGMRFTTKDRDSDHSENNCAAFYRGAWWYRNCHTSNLNGQYLRGAHASYADGVEWSSWTGWQYSLKFSEMKIRPVREDR
# Target: the molecule itself
protein,measurement,value
B1,stoichiometry N,4
